Test results from patent US20070243589A1 (Pfizer, published 2007).
Each block holds one binder with its values, some of them ahead of it.

How the values were obtained:
human IL-22 [1] = biological target: T1, human IL-22 (human, UniProt Q9GZX6 34-179); assay: SPR (Biacore), antibody amine-coupled to CM5 chip, human IL-22 as analyte, 1:1 model
T1 construct: Construct used in SPR, ELISA and cell assays is not described; also called huIL-22
T1 sequence: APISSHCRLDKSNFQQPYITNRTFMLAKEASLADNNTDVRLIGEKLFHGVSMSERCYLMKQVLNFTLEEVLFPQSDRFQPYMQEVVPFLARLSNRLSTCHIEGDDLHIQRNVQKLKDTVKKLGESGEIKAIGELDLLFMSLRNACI
Experimental: To prepare the biosensor surface for the human monoclonal antibodies, either human monoclonal antibody (356A11 or 368D04) or control antibody PD-1 (#17) were immobilized onto a research-grade carboxymethyl dextran chip (CM5) using standard amine coupling. The surface was activated with EDC/NHS. The capturing antibodies were injected at a concentration of 1 μg/ml in sodium acetate buffer (pH 5.5). Remaining activated groups were blocked with 1.0 M ethanolamine (pH 8.0). The first flow cell was used as a reference surface to correct for bulk refractive index, matrix effects, and non-specific binding. The second, third, and fourth flow cells were coated with the capturing molecule.
The kinetic data were analyzed using BIAevaluation software 3.0.2 applied to a 1:1 model. The apparent dissociation (Kd) and association (Kₐ) rate constants were calculated from the appropriate regions of the sensorgrams using a global analysis. The affinity constants of the interaction between antibody and analyte were calculated from the kinetic rate constants by the following formulae: KD=Kd/Kₐ, where KD is the dissociation constant and KA=Kₐ/Kd, where KA is the association constant.

murine IL-22 [2] = biological target: T2, murine IL-22 (murine, UniProt Q9JJY9 34-179); assay: cell-based or functional assay
T2 sequence: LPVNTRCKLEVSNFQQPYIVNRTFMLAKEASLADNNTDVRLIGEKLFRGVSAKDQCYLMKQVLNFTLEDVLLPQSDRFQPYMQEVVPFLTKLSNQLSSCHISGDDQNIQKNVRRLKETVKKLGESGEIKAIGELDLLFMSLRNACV

rat IL-22 [3] = biological target: T3, rat IL-22 (rat, UniProt G3V6X6 34-178); assay: cell-based or functional assay
T3 sequence: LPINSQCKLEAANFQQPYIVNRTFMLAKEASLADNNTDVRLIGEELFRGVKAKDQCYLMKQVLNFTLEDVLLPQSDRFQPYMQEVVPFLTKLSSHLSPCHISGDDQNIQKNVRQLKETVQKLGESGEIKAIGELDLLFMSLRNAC

monkey IL-22 [4] = biological target: monkey IL-22 (monkey); assay: cell-based or functional assay
human IL-22 [5] = biological target: T1, human IL-22; assay: cell-based or functional assay
human IL-28A = biological target: T4, human IL-28A (human, UniProt Q8IZJ0 26-200); assay: BIA (surface plasmon resonance)
T4 sequence (looked up): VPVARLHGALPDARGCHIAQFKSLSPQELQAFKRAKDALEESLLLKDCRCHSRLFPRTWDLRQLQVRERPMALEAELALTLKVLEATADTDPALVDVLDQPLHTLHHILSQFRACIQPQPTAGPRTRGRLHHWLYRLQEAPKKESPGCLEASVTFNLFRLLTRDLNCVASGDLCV

human IL-20 = biological target: T5, human IL-20 (human, UniProt Q9NYY1 25-176); assay: BIA (surface plasmon resonance)
T5 sequence (looked up): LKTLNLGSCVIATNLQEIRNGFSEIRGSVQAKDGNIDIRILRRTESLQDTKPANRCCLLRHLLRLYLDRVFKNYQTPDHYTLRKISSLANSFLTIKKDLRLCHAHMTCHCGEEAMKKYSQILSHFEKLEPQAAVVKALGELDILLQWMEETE

human IFN-ω = biological target: T6, human IFN-ω (human, UniProt P05000 24-195); assay: BIA (surface plasmon resonance)
T6 sequence (looked up): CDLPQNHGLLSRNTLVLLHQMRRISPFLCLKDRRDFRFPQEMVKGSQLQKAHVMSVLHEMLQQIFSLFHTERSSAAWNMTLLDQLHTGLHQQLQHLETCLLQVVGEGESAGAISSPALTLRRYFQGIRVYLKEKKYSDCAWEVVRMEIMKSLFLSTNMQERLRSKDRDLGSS

human IL-24 = biological target: T7, human IL-24 (human, UniProt Q13007 52-206, limits assumed); assay: BIA (surface plasmon resonance)
T7 sequence (looked up): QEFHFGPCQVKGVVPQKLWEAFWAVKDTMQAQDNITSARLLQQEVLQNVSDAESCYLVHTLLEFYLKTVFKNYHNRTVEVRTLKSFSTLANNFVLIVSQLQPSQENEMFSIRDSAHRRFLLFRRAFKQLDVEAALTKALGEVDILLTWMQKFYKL

human IL-10 = human IL-10 (human, UniProt P22301 19-178); assay: BIA (surface plasmon resonance)
human IL-29 = human IL-29 (human, UniProt Q8IU54 20-200); assay: BIA (surface plasmon resonance)
human IL-19 = biological target: T8, human IL-19 (human, UniProt Q9UHD0 25-177); assay: BIA (surface plasmon resonance)
T8 sequence (looked up): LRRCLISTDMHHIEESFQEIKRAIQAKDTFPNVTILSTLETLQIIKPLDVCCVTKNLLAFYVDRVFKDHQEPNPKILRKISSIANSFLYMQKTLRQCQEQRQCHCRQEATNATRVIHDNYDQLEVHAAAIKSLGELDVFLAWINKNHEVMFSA

murine IL-22 [6] = biological target: T2, murine IL-22; assay: cell-based or functional assay; remark: listed apart in the source
rat IL-22 [7] = biological target: T3, rat IL-22; assay: cell-based or functional assay; remark: listed apart in the source
monkey IL-22 [8] = biological target: monkey IL-22 (monkey); assay: cell-based or functional assay; remark: listed apart in the source
human IL-22 [9] = biological target: T1, human IL-22; assay: cell-based or functional assay; remark: listed apart in the source
[10] = biological target: T9, biotinylated IL-22 with an N-terminal His/FLAG tag (bio.IL-22H/F) (human, UniProt Q9GZX6 34-179, biotinylated (site not stated)); assay: DELFIA competition assay: scFv titrated against bio.IL-22H/F binding to the captured IL-22 receptor complex
T9 construct: not shown: N-terminal His/FLAG tag
T9 sequence: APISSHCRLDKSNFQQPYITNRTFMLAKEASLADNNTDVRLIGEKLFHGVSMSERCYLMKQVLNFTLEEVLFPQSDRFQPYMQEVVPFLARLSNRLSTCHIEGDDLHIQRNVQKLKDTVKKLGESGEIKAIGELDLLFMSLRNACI
Experimental: (§1) Microtiter plates were coated with an IL-22 receptor complex antibody (1 μg/ml in PBS), and incubated for 1.5 hours at room temperature. Plates were washed three times in PBST, and blocked for 1 hour at room temperature with 2% MPBS. After a further 3 washes, diluted cell conditioned medium containing an IL-22 receptor complex was added and incubated overnight at 4° C. Crude scFv supernatants were prepared as described above. The following day, 25 μl of diluted scFv sample and 25 μl of bio.IL-22H/F (6 ng/ml) were added to the washed plates, and incubated for 1.5 hours at room temperature. Plates were washed 3 times in PBST, then binding of bio.IL-22H/F to the IL-22 receptor complex was detected with Europium-Streptavidin and the DELFIA® reagent kit (PerkinElmer). Time Resolved Fluorescence was measured using a Victor 2™ Plate Reader (Perkin Elmer).
Purified scFv from positive clones identified from the screening were tested in the DELFIA® IL-22 receptor complex competition assay as described above. A titration of scFv concentrations was used in order to establish the clone potency as measured by IC₅₀ values in the assay. Fourteen optimized clones were designated 097D09, 062A09, 062G05, 087B03, 367D04, 368D04, 166B06, 166G05, 375G06, 376B10, 354A08, 355B06, 355E04, and 356A11.

[11] = biological target: T9, biotinylated IL-22 with an N-terminal …; assay: as above; remark: listed apart in the source
[12] = biological target: T9, biotinylated IL-22 with an N-terminal …; assay: biotinylated IL-22 binding IL-22 receptor complex competition assay, purified scFv, parent
Experimental: as §1
Sequence data for the six parent clones was used to identify the nearest germline sequence for the heavy and light chain of each clone. Appropriate mutations were made using standard site directed mutagenesis techniques with the appropriate mutagenic primers. Mutation of sequences was confirmed by sequence analysis. Purified scFv from the germlined parent clones were tested in the biotinylated IL-22 binding IL-22 receptor complex competition assay as described earlier, in order to establish the clone potency as measured by IC₅₀ values in the assay.

[13] = biological target: T9, biotinylated IL-22 with an N-terminal …; assay: IL-22 receptor complex inhibition assay (bio.IL-22H/F binding to IL-22 receptor complex, DELFIA), scFv
Experimental: (§2) Both the IL-22/IL-22R binding assay (described above) and the IL-22/IL-22 receptor complex assay (described below) were used. ScFv concentrations were titrated in order to establish the clone potencies as measured by assay IC₅₀ values. These were determined using GraphPad Prism software and four-parameter logistic equation curve fitting.
as §1

[14] = biological target: T9, biotinylated IL-22 with an N-terminal …; assay: DELFIA competition assay: scFv titrated against bio.IL-22H/F binding to the captured IL-22 receptor complex; remark: listed apart in the source
Experimental: as §2, §1

human IL-22 [15] = biological target: T1, human IL-22; assay: cell-based or functional assay; remark: listed apart in the source

human IL-10, sequence (P22301 19-178 limits assumed): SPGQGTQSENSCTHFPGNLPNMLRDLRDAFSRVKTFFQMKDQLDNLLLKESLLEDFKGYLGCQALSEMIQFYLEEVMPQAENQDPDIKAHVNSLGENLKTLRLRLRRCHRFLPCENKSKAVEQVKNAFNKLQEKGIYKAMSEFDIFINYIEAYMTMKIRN
human IL-29, sequence (Q8IU54 20-200 limits assumed): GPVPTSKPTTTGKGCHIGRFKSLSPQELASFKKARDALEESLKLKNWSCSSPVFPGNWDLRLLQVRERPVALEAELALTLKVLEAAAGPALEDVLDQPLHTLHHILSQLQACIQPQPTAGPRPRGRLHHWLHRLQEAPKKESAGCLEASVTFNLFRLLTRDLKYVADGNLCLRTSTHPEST

Ka (human IL-22 [1]): 1.85e+10 M⁻¹
Kd (human IL-22 [1]): 0.054 nM
koff (human IL-22 [1]): 4.27e-06 s⁻¹
kon (human IL-22 [1]): 79100 M⁻¹ s⁻¹
IC50 in BaF3 cell based assay (murine IL-22 [2]): 0.00253 nM
IC50 in BaF3 cell based assay (rat IL-22 [3]): 0.0107 nM
IC50 in BaF3 cell based assay (monkey IL-22 [4]): 0.00258 nM
IC50 in BaF3 cell based assay (human IL-22 [5]): 0.00357 nM
binding result (human IL-28A): no binding
binding result (human IL-20): no binding
binding result (human IFN-ω): no binding
binding result (human IL-24): no binding
binding result (human IL-10): no binding
binding result (human IL-29): no binding
binding result (human IL-19): no binding
IC50 in GROa cell based assay (murine IL-22 [6]): 0.144 nM
IC50 in GROa cell based assay (rat IL-22 [7]): 0.211 nM
IC50 in GROa cell based assay (monkey IL-22 [8]): 0.0896 nM
IC50 in GROa cell based assay (human IL-22 [9]): 0.124 nM
B1: 356A11, human monoclonal anti-IL-22 antibody as used in Examples 10 and 11 (antibody, V domains shown)
VH: QVQLVQSGAEVKKPGASVKVSCKASGYTFTNYYMHWVRQAPGQGLEWVGWINPYTGSAFYAQKFRGRVTMTRDTSISTAYMELSRLRSDDTAVYYCAREPEKFDSDDSDVWGRGTLVTVSS
VL: QAVLTQPPSVSGAPGQRVTISCTGSSSNIGAGYGVHWYQQLPGTAPKLLIYGDSNRPSGVPDRFSGSKSGTSASLAITGLQAEDEADYYCQSYDNSLSGYVFGGGTQLTVLG

IC50 [10]: 10.6 nM
IC50 [11]: 7.45 nM
IC50 [12]: 9 nM
IC50 [13]: 7 nM
IC50 [14]: 10 nM
B2: GIL68 scFv (non-germlined parent) (scFv)
scFv: EVQLVQSGAEVKKPGASVKVSCQASGYTFSDYYIHWVRQTPGQGFEWMGWVNPDTGGTRYAQKFQGWVTMTRDMSNTTAYMELPRLRDDDTAVYYCARDLTGFDPFDIWGQGTLVTVSSGGGGSGGGGSGGGGSAQSVLTQPPSVSVAPGKTATITCGGNNFRNKRVHWYQQRPGQAPVLVIYYDSDRPSGIPERFSGSRSGNTATLTISRVEAGDEADFYCQVWDSSTDRPLFGGGTKLTVLGAAA

IC50 [10]: 0.62 nM
IC50 of scFv in BaF3-IL-22 proliferation assay (human IL-22 [15]): 0.46 nM
B3: 166B06 scFv (non-germlined) (scFv)
scFv: EVQLVQSGAEVKKPGASVKVSCQASGYTFSDYYIHWVRQTPGQGFEWMGWVNPDTGGTRYAQKFQGWVTMTRDMSNTTAYMELPRLRDDDTAVYYCARDLTGFDPFDIWGQGTLVTVSSGGGSSGGGGSGGGGSAQSVLTQPPSVSVAPGKTATITCGGNNFRNKRVHWYQQRPGQAPVLVIYYDSDRPSGIPERFSGSRSGNTATLTISRVEAGDEADFYCQVWDLFNDNGVFGGGTKLTVLGAAAH
notes: Optimized clone derived from GIL68
